Values of other authors as cited in article PMC4059260.
Read-outs that look alike come from different tables or passages of the source.

What was measured:
VEGF (Homo sapiens) [1] = target: VEGF (Homo sapiens) (UniProt P15692)
VEGF (Homo sapiens) [2] = target: VEGF (Homo sapiens) (UniProt P15692); remark: listed apart in the source

Sequence of UniProt P15692 (P15692 whole entry): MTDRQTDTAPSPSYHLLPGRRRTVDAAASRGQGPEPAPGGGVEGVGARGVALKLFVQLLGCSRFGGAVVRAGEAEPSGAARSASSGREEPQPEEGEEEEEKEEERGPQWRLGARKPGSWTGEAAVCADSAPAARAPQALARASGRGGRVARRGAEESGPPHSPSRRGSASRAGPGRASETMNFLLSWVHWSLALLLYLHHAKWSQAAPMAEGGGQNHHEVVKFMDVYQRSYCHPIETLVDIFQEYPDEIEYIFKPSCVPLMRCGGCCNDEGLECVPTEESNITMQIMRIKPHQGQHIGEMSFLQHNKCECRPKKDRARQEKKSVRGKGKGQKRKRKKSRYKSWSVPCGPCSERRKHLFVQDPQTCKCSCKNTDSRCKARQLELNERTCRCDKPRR

Substance | Kd (VEGF (Homo sapiens) [1]) [nM] | Kd (VEGF (Homo sapiens) [2]) [nM]
alpha-2-macroglobulin (from UniProt P01023) | 420 | 
sFlt-1 (from UniProt P17948) |  | 0.001
